± gives the standard deviation of the averaged measurements.
B1: library; a variant is named by its letters at N, in order (parent)
chain: GCUGUCACCGGUGUAUUACCCUAGUGGUCGACCGGUCUGAUGAGUCUNNNNNNAGACGAAACAGC

What was measured:
hypoxanthine [1] = variants of: B1; experiment: FACS-Seq fitted mean relative fluorescence mCherry/BFP without ligand (log10 relative fluorescence); ligand: hypoxanthine (xanthine aptamer); higher = higher reporter protein expression; conditions: HEK293T, ligand present: no
In short: (§1)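 Fluorescence values are fitted normal means of bin counts along the mCherry/BFP axis. HEK293T libraries lentivirally carrying the ribozyme switch in an mCherry reporter, with an EF1α-BFP marker, were enriched, exposed to ligand or not for 48 h, and sorted into 6 bins. Genomic DNA per bin was PCR-amplified, barcoded and run on MiSeq. Means of log10(mCherry/BFP) were scaled to five spiked-in control ribozymes.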

hypoxanthine [2] = variants of: B1; experiment: normalized RNA/DNA level with ligand (relative to sTRSVctl = 100) (log10 (% of sTRSVctl)); ligand: hypoxanthine (xanthine aptamer); higher = less ribozyme self-cleavage, higher mRNA level; conditions: ligand concentration (+) RNA-Seq: 5 mM, HEK293T, reporter: mCherry (pCS4076), ligand present: yes
In short: (§2)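 Ribozyme switch library plasmids linked to reporters were introduced into HEK293T cells at 4 µg per 6-well well, with ligand, if any, added 1 h before. Total RNA was extracted with EDTA 72 h later, reverse-transcribed, amplified, barcoded and sequenced. RNA level was computed from RNA over DNA reads relative to a spiked-in non-cleaving sequence or the top sequences, then scaled and log-transformed. The top set was 25 sequences, values were ×100 and log10, and the cutoff was ≥100 DNA reads.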

hypoxanthine [3] = variants of: B1; experiment: normalized RNA/DNA level without ligand (relative to sTRSVctl = 100) (log10 (% of sTRSVctl)); ligand: hypoxanthine (xanthine aptamer); higher = less ribozyme self-cleavage, higher mRNA level; conditions: HEK293T, reporter: mCherry (pCS4076), ligand present: no
In short: as §2

hypoxanthine [4] = variants of: B1; experiment: FACS-Seq fitted mean relative fluorescence mCherry/BFP with ligand (log10 relative fluorescence); ligand: hypoxanthine (xanthine aptamer); ligand concentration (+) FACS-Seq: 5 mM; higher = higher reporter protein expression; conditions: HEK293T, ligand present: yes
In short: as §1

Row | Variant | FACS-Seq fitted mean (log10) (hypoxanthine [1]) | normalized RNA/DNA level with ligand (log10) (hypoxanthine [2]) | normalized RNA/DNA level without ligand (log10) (hypoxanthine [3]) | FACS-Seq fitted mean (log10) (hypoxanthine [4])
1 | UCGGUA | 0.215 ± 0.024 | 1.912 ± 0.014 | 1.562 ± 0.014 | 0.485 ± 0.04
2 | CCCAAA | 0.477 ± 0.017 | 1.922 ± 0.019 | 1.84 ± 0.036 | 0.617 ± 0.11
3 | CAUACG | 0.394 ± 0.013 | 1.903 ± 0.016 | 1.88 ± 0.079 | 0.469 ± 0.045
4 | AAAAGA | 0.199 ± 0.0066 | 1.91 ± 0.053 | 1.67 ± 0.025 | 0.556 ± 0.061
5 | AUCCCG | 0.0616 ± 0.017 | 1.86 ± 0.04 | 1.51 ± 0.11 | 0.148 ± 0.14
6 | UGUGGA | -0.645 ± 0.11 | 1.91 ± 0.06 | 1.52 ± 0.12 | -0.186 ± 0.061
7 | UAAUUA | 0.737 ± 0.055 | 1.92 ± 0.081 | 1.87 ± 0.032 | 0.65 ± 0.063
8 | GUGCUG | 0.44 ± 0.068 | 1.914 ± 0.019 | 1.58 ± 0.025 | 0.542 ± 0.054
9 | GCGACC | 0.07588 ± 0.00049 | 1.88 ± 0.025 | 1.52 ± 0.038 | 0.5 ± 0.093
10 | AGCUUC | -0.1877 ± 0.00023 | 2.019 ± 0.0075 | 1.927 ± 0.016 | -0.0634 ± 0.021
11 | GGAGCG | 0.171 ± 0.034 | 1.93 ± 0.043 | 1.49 ± 0.04 | 0.456 ± 0.023
12 | GCCAAG | 0.432 ± 0.0083 | 1.829 ± 0.011 | 1.4 ± 0.051 | 0.713 ± 0.047
13 | GCAUAA | 0.705 ± 0.011 | 1.92 ± 0.03 | 1.801 ± 0.015 | 0.6261 ± 0.0017
14 | GAGGAC | 0.178 ± 0.038 | 1.91 ± 0.041 | 1.6478 ± 0.00029 | 0.308 ± 0.1
15 | UGACAC | 0.161 ± 0.17 | 1.93 ± 0.03 | 1.84 ± 0.064 | 0.132 ± 0.059
16 | GCGCAC | 0.112 ± 0.061 | 1.8 ± 0.2 | 1.412 ± 0.0031 | 0.0185 ± 0.28
17 | CCGGAC | 0.196 ± 0.035 | 2 ± 0.05 | 1.79 ± 0.077 | 0.439 ± 0.041
18 | UCUAUC | 0.701 ± 0.082 | 2.046 ± 0.019 | 2 ± 0.023 | 0.59 ± 0.08
19 | CUCGGC | 0.2237 ± 0.00057 | 1.97 ± 0.12 | 1.92 ± 0.093 | 0.24 ± 0.018
20 | AUGAGA | 0.392 ± 0.088 | 1.85 ± 0.062 | 1.451 ± 0.0036 | 0.697 ± 0.0095
21 | AAGGGG | 0.115 ± 0.014 | 1.78 ± 0.031 | 1.203 ± 0.002 | 0.386 ± 0.1
22 | AAGGGA | 0.273 ± 0.057 | 1.83 ± 0.035 | 1.44 ± 0.017 | 0.545 ± 0.02
23 | UACUAG | 0.177 ± 0.053 | 1.9142 ± 0.0014 | 1.65 ± 0.033 | 0.506 ± 0.038
24 | ACACGA | -0.273 ± 0.0021 | 1.91 ± 0.062 | 1.73 ± 0.058 | 0.145 ± 0.0024

Row | Variant | FACS-Seq fitted mean (log10) (hypoxanthine [1]) | normalized RNA/DNA level with ligand (log10) (hypoxanthine [2]) | normalized RNA/DNA level without ligand (log10) (hypoxanthine [3]) | FACS-Seq fitted mean (log10) (hypoxanthine [4])
25 | CUAGUC | 0.639 ± 0.036 | 1.99 ± 0.074 | 1.91 ± 0.046 | 0.658 ± 0.03
26 | AUUGCG | -0.0459 ± 0.021 | 1.857 ± 0.015 | 1.41 ± 0.065 | 0.458 ± 0.028
27 | GCUAUU | 0.263 ± 0.011 | 1.927 ± 0.011 | 1.89 ± 0.004 | 0.412 ± 0.06
28 | AGUUAG | 0.335 ± 0.052 | 1.8 ± 0.054 | 1.44 ± 0.078 | 0.569 ± 0.019
29 | UCUGGC | 0.393 ± 0.029 | 1.94 ± 0.0059 | 1.87 ± 0.044 | 0.508 ± 0.055
30 | UAAAAU | 0.434 ± 0.055 | 1.89 ± 0.071 | 1.76 ± 0.0046 | 0.454 ± 0.039
31 | CGAAAU | 0.0751 ± 0.04 | 1.91 ± 0.049 | 1.73 ± 0.021 | 0.0235 ± 0.19
32 | UAAGUG | -0.334 ± 0.04 | 1.891 ± 0.0081 | 1.653 ± 0.015 | 0.146 ± 0.027
33 | GAGAAA | 0.546 ± 0.035 | 1.88 ± 0.021 | 1.597 ± 0.015 | 0.651 ± 0.048
34 | AGACUU | 0.58 ± 0.039 | 1.946 ± 0.008 | 1.9 ± 0.021 | 0.5558 ± 0.0047
35 | ACAAAA | 0.4 ± 0.17 | 1.904 ± 0.0062 | 1.81 ± 0.021 | 0.1925 ± 0.0013
36 | ACAAGC | 0.743 ± 0.017 | 1.92 ± 0.033 | 1.76 ± 0.015 | 0.863 ± 0.082
37 | ACAAGA | 0.164 ± 0.1 | 1.891 ± 0.0031 | 1.65 ± 0.037 | 0.121 ± 0.037
38 | UGCUGA | 0.117 ± 0.0063 | 1.92 ± 0.013 | 1.68 ± 0.021 | 0.0171 ± 0.11
39 | AACGAA | -0.1232 ± 0.00029 | 1.88 ± 0.068 | 1.67 ± 0.042 | -0.425 ± 0.21
40 | GAAAGC | 0.368 ± 0.056 | 1.86 ± 0.028 | 1.39 ± 0.084 | 0.776 ± 0.043
41 | AGUACG | 0.173 ± 0.058 | 1.84 ± 0.022 | 1.38 ± 0.052 | 0.423 ± 0.086
42 | GCACCU | 0.968 ± 0.14 | 1.942 ± 0.0073 | 1.94 ± 0.044 | 0.785 ± 0.08
43 | UGGAUG | 0.4451 ± 0.0015 | 1.92 ± 0.025 | 1.659 ± 0.0063 | 0.341 ± 0.018
44 | UUUAUA | -0.64 ± 0.014 | 1.93 ± 0.024 | 1.849 ± 0.0039 | -0.329 ± 0.11
45 | GGCAGU | 0.196 ± 0.14 | 1.98 ± 0.04 | 1.85 ± 0.046 | 0.205 ± 0.0051
46 | AUCAUA | 0.467 ± 0.023 | 1.92 ± 0.035 | 1.798 ± 0.0029 | 0.562 ± 0.061
47 | GGGUUG | 0.034 ± 0.047 | 1.92 ± 0.024 | 1.64 ± 0.073 | 0.486 ± 0.065
48 | GAUUGA | 0.348 ± 0.023 | 1.92 ± 0.022 | 1.61 ± 0.05 | 0.455 ± 0.063

Row | Variant | FACS-Seq fitted mean (log10) (hypoxanthine [1]) | normalized RNA/DNA level with ligand (log10) (hypoxanthine [2]) | normalized RNA/DNA level without ligand (log10) (hypoxanthine [3]) | FACS-Seq fitted mean (log10) (hypoxanthine [4])
49 | ACCGAU | 0.387 ± 0.047 | 1.89 ± 0.056 | 1.669 ± 0.0087 | 0.531 ± 0.015
50 | UGAUGA | 0.599 ± 0.053 | 1.906 ± 0.0054 | 1.58 ± 0.035 | 0.575 ± 0.14
51 | GGGUCC | 0.29 ± 0.12 | 2 ± 0.023 | 1.991 ± 0.019 | 0.3574 ± 0.0012
52 | AUACGC | 0.365 ± 0.04 | 1.91 ± 0.056 | 1.72 ± 0.042 | 0.5194 ± 0.0036
53 | GAAGAA | 0.4206 ± 0.0035 | 1.9256 ± 0.00044 | 1.677 ± 0.013 | 0.5245 ± 0.001
54 | AAACUU | 0.777 ± 0.048 | 1.92 ± 0.011 | 1.856 ± 0.0063 | 0.674 ± 0.075
55 | AGGACC | 0.421 ± 0.0047 | 1.94 ± 0.042 | 1.88 ± 0.028 | 0.565 ± 0.034
56 | UUCGGU | 0.323 ± 0.015 | 1.93 ± 0.044 | 1.78 ± 0.036 | 0.492 ± 0.007
57 | AUUAGC | 0.269 ± 0.031 | 1.92 ± 0.037 | 1.77 ± 0.029 | 0.487 ± 0.023
58 | AAAUCG | 0.0899 ± 0.022 | 1.86 ± 0.04 | 1.36 ± 0.014 | 0.509 ± 0.04
59 | AAAUCA | 0.598 ± 0.077 | 1.927 ± 0.0036 | 1.8121 ± 0.0018 | 0.629 ± 0.082
60 | GAACGG | -0.137 ± 0.019 | 1.74 ± 0.081 | 1.22 ± 0.085 | 0.484 ± 0.059
61 | UAUGGC | -0.121 ± 0.027 | 1.92 ± 0.012 | 1.82 ± 0.022 | 0.322 ± 0.0061
62 | ACGCGC | 0.307 ± 0.06 | 1.88 ± 0.052 | 1.54 ± 0.019 | 0.7 ± 0.02
63 | AGUGAU | 0.509 ± 0.14 | 1.91 ± 0.065 | 1.77 ± 0.047 | 0.534 ± 0.019
64 | GUAUAC | 0.143 ± 0.058 | 1.94 ± 0.067 | 1.82 ± 0.067 | 0.251 ± 0.093
65 | ACCUGA | 0.156 ± 0.046 | 1.96 ± 0.021 | 1.79 ± 0.049 | 0.323 ± 0.057
66 | AAAUUU | 0.596 ± 0.082 | 1.95 ± 0.043 | 1.9 ± 0.034 | 0.577 ± 0.029
67 | UACAAG | 0.335 ± 0.0078 | 1.928 ± 0.011 | 1.58 ± 0.018 | 0.444 ± 0.047
68 | ACACCC | 0.129 ± 0.016 | 1.97 ± 0.1 | 1.87 ± 0.12 | 0.45298 ± 0.00015
69 | AGAUGA | 0.409 ± 0.022 | 1.93 ± 0.05 | 1.65 ± 0.034 | 0.591 ± 0.025
70 | ACUAAU | 0.475 ± 0.018 | 1.92 ± 0.046 | 1.67 ± 0.058 | 0.628 ± 0.041
71 | ACGAAA | 0.129 ± 0.049 | 1.86 ± 0.039 | 1.47 ± 0.056 | 0.425 ± 0.036
72 | CAGCGG | 0.2617 ± 0.00076 | 1.9 ± 0.031 | 1.48 ± 0.029 | 0.612 ± 0.059

From the supplement of paper PMC6757056
